In PMC11662939, “CRISPR-AsCas12f1 couples out-of-protospacer DNA unwinding with exonuclease activity in the sequential target cleavage”:

Assays:
AsCas12f1 [1] = target: T1, AsCas12f1 (Acidibacillus sulfuroxidans, UniProt A0A2U3D0N8 1-422); test: smFRET; crRNA-tracrRNA; binding then cleavage, E ~0.5; Assay buffers not in the material; duplexes annealed in 20 mM Tris-HCl pH 8.0, 50 mM NaCl; smFRET with 1-10 mM Mg2+; conditions: protein: recombinant; tags: N-terminal His6-SUMO, removed by HRV3C; chain copies: 2; label: iCy3dT (+34) and 3' biotin on NTS; 3' Cy5 on crRNA; strands: TS/NTS/crRNA/tracrRNA; DNA blunt; crRNA 3' 20 nt pairs with TS
T1 sequence: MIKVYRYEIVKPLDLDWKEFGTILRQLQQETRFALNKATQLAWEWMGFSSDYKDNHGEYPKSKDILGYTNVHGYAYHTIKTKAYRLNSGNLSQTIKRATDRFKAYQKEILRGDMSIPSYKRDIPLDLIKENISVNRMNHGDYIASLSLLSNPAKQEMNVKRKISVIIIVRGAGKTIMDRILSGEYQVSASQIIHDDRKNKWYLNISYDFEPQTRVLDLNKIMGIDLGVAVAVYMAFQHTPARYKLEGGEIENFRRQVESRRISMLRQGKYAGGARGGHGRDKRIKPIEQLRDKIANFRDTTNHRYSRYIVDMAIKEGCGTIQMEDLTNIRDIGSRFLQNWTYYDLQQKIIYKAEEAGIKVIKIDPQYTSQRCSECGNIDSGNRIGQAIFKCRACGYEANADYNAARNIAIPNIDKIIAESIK

AsCas12f1 [2] = target: T1, AsCas12f1; test: smFRET; partially matched guide/target (16-20mm); low E 0.2-0.4, partial hybridization; Assay buffers not in the material; duplexes annealed in 20 mM Tris-HCl pH 8.0, 50 mM NaCl; smFRET with 1-10 mM Mg2+; conditions: protein: recombinant; tags: N-terminal His6-SUMO, removed by HRV3C; chain copies: 2; label: iCy3dT and 3' biotin on NTS; 3' Cy5 on crRNA; strands: TS/NTS/crRNA/tracrRNA; DNA blunt; guide mismatched at positions 16-20

B1: smFRET target DNA with crRNA/tracrRNA (mixed)
DNA 1: ACGCACCAGAAACGAAGGCTACGTCCAGGAGCGCACCATCTTCTTCAAGGAATACAAACAAGCTAAGCACAACGTCGTCT
DNA 2: AGACGACGTTGTGCTTAGCTTGTTTGTATTCCTTGAAGAAGATGGTGCGCTCCTGGACGTAGCCTTCGTTTCTGGTGCGT
RNA 1: GUUUGCGAGCUAGCUUGUGGAGUGUGAACUAUUCCUUGAAGAAGAUGGU
RNA 2: GGAUUCGUCGGUUCAGCGACGAUAAGCCGAGAAGUGCCAAUAAAACUGUUAAGUGGUUUGGUAACGCUCGGUAAGGUAGCCAAAAGGCUGAAACUCCGUGCACAAAGACCGCACGGACGCUUCACAUAUAGCUCAUAAAC
binding result (AsCas12f1 [1]): binds

B2: Protospacer 16-20mm DNA with crRNA/tracrRNA (mixed)
DNA 1: ACGCACCAGAAACGAAGGCTACGTCCAGGAGCGCGTACGCTTCTTCAAGGAATACAAACAAGCTAAGCACAACGTCGTCT
DNA 2: AGACGACGTTGTGCTTAGCTTGTTTGTATTCCTTGAAGAAGCGTACGCGCTCCTGGACGTAGCCTTCGTTTCTGGTGCGT
RNA 1: GUUUGCGAGCUAGCUUGUGGAGUGUGAACUAUUCCUUGAAGAAGAUGGU
RNA 2: GGAUUCGUCGGUUCAGCGACGAUAAGCCGAGAAGUGCCAAUAAAACUGUUAAGUGGUUUGGUAACGCUCGGUAAGGUAGCCAAAAGGCUGAAACUCCGUGCACAAAGACCGCACGGACGCUUCACAUAUAGCUCAUAAAC
binding result (AsCas12f1 [2]): binds
